How the values were obtained:
[1] = analytical gel filtration (Superdex200), apparent molecular weight; format: physicochemical
From the text: In the fusion protein of GLP-1(A8G/G22E)-Fn8-COL18NC1 described in example 4, the flexible unstructured linker between Fn8 and COL18NC1 contains six residues (GGGSGG; SEQ ID NO:89). To generate the flexible un-structured linkers with different lengths, we have synthesized the genes GLP-1(A8G/G22E/R36S)-Fn8-COL18NC1-20, GLP-1(A8G/G22E/R36S)-Fn8-COL18NC1-30, GLP-1(A8G/G22E/R36S)-Fn8-COL18NC1-54 and GLP-1(A8G/G22E/R36S)-Fn8-COL18NC1-60. In these genes, the length of the flexible unstructured polypeptide linker between Fn8 and COL18NC1 contained 20, 30, 54 and 60 residues, respectively. The protein sequences of GLP-1(A8G/G22E/R36S)-Fn8-COL18NC1-20, GLP-1(A8G/G22E/R36S)-Fn8-COL18NC1-30, GLP-1(A8G/G22E/R36S)-Fn8-COL18NC1-54 and GLP-1(A8G/G22E/R36S)-Fn8-COL18NC1-60 are listed as SEQ ID NO:8-11. The synthetic genes of GLP-1(A8G/G22E/R36S)-Fn8-COL18NC1-20, GLP-1(A8G/G22E/R36S)-Fn8-COL18NC1-30, GLP-1(A8G/G22E/R36S)-Fn8-COL18NC1-54 and GLP-1(A8G/G22E/R36S)-Fn8-COL18NC1-60 were grafted to the pET29b by NdeI and XhoI for protein expressions. The expression and purification of these fusion proteins were carried out using similar protocols described in example 3. To estimate the hydrodynamic radius and/or the Rg of the fusion proteins, the purified proteins were loaded on an analytical gel filtration column Superdex200 (GE Healthcare).
Moreover, the flexible unstructured linker between the therapeutic polypeptide and the scaffold protein may adjust the hydrodynamic radius and/or the Rg of the fusion molecule in a tunable manner.
The apparent molecular weights of the fusion proteins were estimated by use of an analytical gel filtration column Superdex-200 (GE Healthcare) mounted on the AKTA FPLC system (GE Healthcare). The purified fusion proteins GLP-1-Fn8, GLP-1-Fn8-COL18NC1, GLP-1(A8G/G22E/R36G)-Fn8-p246-COL18NC1 were loaded on the Superdex200 column. GLP-1-Fn8 is a fusion protein of GLP-1 and Fn8 and contains the first 144 amino acid residues of the fusion protein GLP-1-Fn8-COL18NC1 (SEQ ID NO:2). […] The genuine molecular weights for the fusion proteins GLP-1-Fn8 monomer, GLP-1-Fn8-COL18NC1 trimer, and GLP-1(A8G/G22E/R36G)-Fn8-p246-COL18NC1 trimer were ˜15 Kd, 65 Kd and 123Kd, respectively.

[2] = target: human GLP-1 receptor (GLP-1R) (human, UniProt P43220 24-463); assay: cell-based or functional assay
[3] = pharmacokinetics in Sprague-Dawley rats, sandwich ELISA (Example 6); format: in vivo; settings: Sprague-Dawley rat, intraperitoneal, 0.66/0.72/0.75/0.78 mg/kg respectively
Method: To evaluate the pharmacokinetics profiles for the GLP-1 containing fusion proteins generated using the method of the invention, we purified GLP-1(A8G/G22E/R36S)-Fn8-COL18NC1, GLP-1(A8G/G22E/R36S)-Fn8-COL18NC1-20, GLP-1(A8G/G22E/R36S)-Fn8-COL18NC1-30, GLP-1(A8G/G22E/R36S)-Fn8-COL18NC1-54 in PBS buffer, pH 7.2. These fusion proteins were administered on Sprague-Dawley (SD) rats by intraperitoneal injections at the doses of 0.66 mg/kg, 0.72 mg/kg, 0.75 mg/kg, 0.78 mg/kg animal respectively. Blood samples were taken at various time points after injections such as 0-min, 30-min, 1-hour, 2-hour, 4-hour, 8-hour, 24-hour, 48-hour, 3-day, 4-day, 5-day. 7-day, 10-day. The serum samples were centrifuged and kept at −80° C. freezer.
(§1) The GLP-1 concentrations within the serum samples were examined by use of the sandwich ELISA method. The rabbit polyclonal antibody against human Fibronectin at the concentration of 3 ug/ml (Ab299, Abcam company) was coated on ELISA plate for 1 hour at room temperature. Then the plate was washed by PBST buffer three times and the wells were blocked by PBS with 10% FBS for 1 hour at room temperature. The plate was washed three times before the serum samples containing GLP-1 fusion proteins were added. The serum samples could be diluted to 20-10000 folds before use. The ELISA plate was incubated with the serum samples at room temperature for 1 hour and then washed by PBST buffer five times. Then mouse monoclonal against human GLP-1 peptide antibody (sc57510, Santa Cruz Biotechology) at the concentration of 1 ug/ml in PBST buffer was added to the wells. The plate was washed extensively after incubation of 1 hour at room temperature. The secondary antibody, […] HRP conjugated antibody (Beijing ZSGB-Bio company, ZB 5301), was added into the wells and the color was developed using TMB (3,3′,5,5′-tetramethylbenzidine, BD Biosciences, Cat 555214). The plate reader (Bio-Rad microplate reader Model 680) was utilized to obtain the OD450 readings. This method has been calibrated using purified proteins first.
The pharmacokinetics parameters were obtained by using the WinNonlin software (Table 3).

[4] = pharmacokinetics in SD rats, sandwich ELISA (Example 15); format: in vivo, SD (Sprague-Dawley) rats; settings: intraperitoneal, 5 nmol/kg
Method: To evaluate the pharmacokinetics profiles for the GLP-1 containing fusion proteins generated using the method of the invention, we purified the recombinant fusion proteins of GLP-1-Fn8-COL18NC1, GLP1(A8G/G22E/R36G)-Fn8-p246-COL18NC1 and GLP1(A8G/G22E/R36G)-Fn8-p285-COL18NC1 in PBS buffer, pH 7.2. These fusion proteins were administered into SD (Sprague-Dawley) rats by intraperitoneal injections at the dose of 5 nmol/kg for animals, respectively. Blood samples were taken at various time points after injections such as 0-min, 30-min, 1-hour, 2-hour, 4-hour, 6-hour, 8-hour, 24-hour, 48-hour, 3-day, 4-day, 5-day, 6-day and 7-day. The serum samples were centrifuged and kept at −80° C. freezer.
as §1, with “within the samples were” for “within the serum samples were”, “Santa Cruz Biotechnology) at the” for “Santa Cruz Biotechology) at the”
The pharmacokinetics parameters were obtained by using the WinNonlin software (Table 5).

Row | Molecule | apparent molecular weight [1] | EC50 (nM) measured by cAMP assay [2] [nM] | AUC(0-t) [3] [ng·h/mL] | AUCinf [3] [ng·h/mL] | CL [3] [mL/min/kg] | Cmax [3] [ng/mL] | T½ [3] [h] | V [3] [L/kg] | AUCall ([4]; Rats) [ng·h/mL] | CL/F ([4]; Rats) [mL/min/kg] | Cmax ([4]; Rats) [ng/mL] | T½ ([4]; Rats) [h] | Vss ([4]; Rats) [L/kg] | half life ([4]; SD rats) [h]
1 | GLP-1(A8G/G22E/R36S)-Fn8-COL18NC1-20 (ligand) HGEGTFTSDVSSYLEEQAAKEFIAWLVKGSGGGGSGGAVPPPTDLRFTNIGPDTMRVTWAPPPSIDLTNFLVRYSPVKNEEDVAELSISPSDNAVVLTNLLPGTEYVVSVSSVYEQHESTPLRGRQKTGGGGGSGGGGSGGGGSGGGGSGASSGVRLWATRQAMLGQVHEVPEGWLIFVAEQEELYVRVQNGFRKVQLEARTPLPRG | larger apparent molecular weight than their genuine molecular weight | 1.4 | 36210 | 37240 | 0.9505 | 2260 | 6.45 | 0.53016 | – | – | – | – | – | –
2 | GLP-1-Fn8: fusion protein of GLP-1 and Fn8, first 144 residues of SEQ ID NO:2; monomer in solution (protein) HAEGTFTSDVSSYLEGQAAKEFIAWLVKGRGGGGSGGGGSAVPPPTDLRFTNIGPDTMRVTWAPPPSIDLTNFLVRYSPVKNEEDVAELSISPSDNAVVLTNLLPGTEYVVSVSSVYEQHESTPLRGRQKTGGGGSGGGASSGV | ~20 Kd | – | – | – | – | – | – | – | – | – | – | – | – | –
3 | GLP-1(A8G/G22E/R36S)-Fn8-COL18NC1-30 (ligand) HGEGTFTSDVSSYLEEQAAKEFIAWLVKGSGGGGSGGAVPPPTDLRFTNIGPDTMRVTWAPPPSIDLTNFLVRYSPVKNEEDVAELSISPSDNAVVLTNLLPGTEYVVSVSSVYEQHESTPLRGRQKTGGGGGSGGGGSASSASTGGPSGGGGSGGGGSGASSGVRLWATRQAMLGQVHEVPEGWLIFVAEQEELYVRVQNGFRKVQLEARTPLPRG | larger apparent molecular weight than their genuine molecular weight | 1.3 | 47580 | 47600 | 0.7673 | 2150 | 7.22 | 0.47981 | – | – | – | – | – | –
4 | GLP-1(A8G/G22E/R36S)-Fn8-COL18NC1-60 (ligand) HGEGTFTSDVSSYLEEQAAKEFIAWLVKGSGGGGSGGAVPPPTDLRFTNIGPDTMRVTWAPPPSIDLTNFLVRYSPVKNEEDVAELSISPSDNAVVLTNLLPGTEYVVSVSSVYEQHESTPLRGRQKTGGGGSGGGSGGGSTASSASTKGPSGGGSGGGSGGGSAPSSKSTSGGTAAGGGSGGGSGGGSGASSGVRLWATRQAMLGQVHEVPEGWLIFVAEQEELYVRVQNGFRKVQLEARTPLPRG | ~200 Kd | 0.5 | – | – | – | – | – | – | – | – | – | – | – | –
5 | GLP-1(A8G/G22E/R36S)-Fn8-COL18NC1-54 (ligand) HGEGTFTSDVSSYLEEQAAKEFIAWLVKGSGGGGSGGAVPPPTDLRFTNIGPDTMRVTWAPPPSIDLTNFLVRYSPVKNEEDVAELSISPSDNAVVLTNLLPGTEYVVSVSSVYEQHESTPLRGRQKTGGGGGSGGGGSTASSASTGGPSGGGGSGGGGSAPSSGSTSGGTAAGGGGSGGGGSGASSGVRLWATRQAMLGQVHEVPEGWLIFVAEQEELYVRVQNGFRKVQLEARTPLPRG | ~200 Kd | 0.5 | 86640 | 86670 | 0.451 | 2640 | 9.10 | 0.35086 | – | – | – | – | – | –
6 | GLP1(A8G/G22E/R36G)-Fn8-p285-COL18NC1: fusion with Fn8, pCloud p285 and COL18NC1; SEQ ID NO: 23 (protein) HGEGTFTSDVSSYLEEQAAKEFIAWLVKGGGSGGGSGGGSGGGSGGGSGSGGAVPPPTDLRFTNIGPDTMRVTWAPPPSIDLTNFLVRYSPVKNEEDVAELSISPSDNAVVLTNLLPGTEYVVSVSSVYEQHESTPLRGRQKTGGGGSGGGSGSGSESGSGGGSTSSGTGSETESPGSGSESGSGPSSAGSGSGSESGSGSGSSGPGSTGGSGSESGSGPGSSGTGGTATGSGSESGSGPGSSGPGSTGSGSGSESGSGSGSSGTGSTGGSGSESGSGPGSPRPGSTGTGSGSESGSGPGSSERGSAGGSGSESGSGTSESSASGSTGGSGSESGSGSESGSGSGSESGSGPESPGSGGSGSESGSGTSGSTGSGSESGSGPGSSGPGSTGSGSGSESGSGSGSSGTGSTGGSGSESGSGGGSGGGSGGGASSGVRLWATRQAMLGQVHEVPEGWLIFVAEQEELYVRVQNGFRKVQLEARTPLPRG | – | – | – | – | – | – | – | – | 475300 | 0.0228 | 7980 | 31.2 | 0.062 | 31.2
7 | GLP-1(A8G/G22E/R36S)-Fn8-COL18NC1 (ligand) HGEGTFTSDVSSYLEEQAAKEFIAWLVKGSGGGGSGGGGSAVPPPTDLRFTNIGPDTMRVTWAPPPSIDLTNFLVRYSPVKNEEDVAELSISPSDNAVVLTNLLPGTEYVVSVSSVYEQHESTPLRGRQKTGGGGSGGGASSGVRLWATRQAMLGQVHEVPEGWLIFVAEQEELYVRVQNGFRKVQLEARTPLPRG | ~100 Kd | 1.3 | – | – | – | – | – | – | – | – | – | – | – | –
